Laboratory results from article PMC3419070, “Identification of novel mitosis regulators through data mining with human centromere/kinetochore proteins as group queries” (BMC Cell Biology, 2012).

Target: T1, purified recombinant 6×His-TRIP13 (human, UniProt Q15645 1-432)
T1 construct: TRIP13, human AAA-ATPase; full-length cDNA cloned by the Gateway system; The host is probably E. coli: the methods name destination vectors for E. coli or mammalian cells; also called His-tagged TRIP13
T1 sequence (looked up): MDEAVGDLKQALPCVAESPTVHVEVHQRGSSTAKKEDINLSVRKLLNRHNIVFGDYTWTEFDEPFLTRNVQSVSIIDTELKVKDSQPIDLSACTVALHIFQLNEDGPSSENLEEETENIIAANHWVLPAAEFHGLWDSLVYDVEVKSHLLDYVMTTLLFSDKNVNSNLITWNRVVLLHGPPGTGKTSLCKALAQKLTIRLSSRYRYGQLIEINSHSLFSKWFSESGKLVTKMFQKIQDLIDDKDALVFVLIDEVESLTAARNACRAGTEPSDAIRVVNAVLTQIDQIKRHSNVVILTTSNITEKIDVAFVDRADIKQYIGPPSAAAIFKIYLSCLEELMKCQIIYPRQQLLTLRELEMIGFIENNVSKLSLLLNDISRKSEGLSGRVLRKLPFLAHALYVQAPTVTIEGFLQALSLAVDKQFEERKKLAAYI
Assay: pull-down; in vitro binding of recombinant proteins: His-TRIP13 at 100 nM, GST-p31^comet at increasing concentrations; Probond nickel beads, washed; blots with anti-6×His and anti-GST antibodies
Details: both partners purified

binding result: binds
B1: purified recombinant GST-p31^comet (natural protein, human, UniProt Q15013 1-274, looked up)
chain: MAAPEAEVLSSAAVPDLEWYEKSEETHASQIELLETSSTQEPLNASEAFCPRDCMVPVVFPGPVSQEGCCQFTCELLKHIMYQRQQLPLPYEQLKHFYRKPSPQAEEMLKKKPRATTEVSSRKCQQALAELESVLSHLEDFFARTLVPRVLILLGGNALSPKEFYELDLSLLAPYSVDQSLSTAACLRRLFRAIFMADAFSELQAPPLMGTVVMAQGHRNCGEDWFRPKLNYRVPSRGHKLTVTLSCGRPSIRTTAWEDYIWFQAPVTFKGFRE
notes: p31^comet (MAD2L1BP), human mitotic checkpoint silencing protein; full-length cDNA cloned by the Gateway system; The host is probably E. coli: the methods name destination vectors for E. coli or mammalian cells; also called MAD2L1BP
